Read-outs that look alike come from different tables or passages of the source.
Experiments:
[1] = target: T1, recombinant human IL1RAP ECD (human, UniProt Q9NPH3 21-367); experiment: SPR (ProteOn)
T1 construct: His-tagged; also called hIL1RAP-ECD; rhuIL1RAP
T1 sequence: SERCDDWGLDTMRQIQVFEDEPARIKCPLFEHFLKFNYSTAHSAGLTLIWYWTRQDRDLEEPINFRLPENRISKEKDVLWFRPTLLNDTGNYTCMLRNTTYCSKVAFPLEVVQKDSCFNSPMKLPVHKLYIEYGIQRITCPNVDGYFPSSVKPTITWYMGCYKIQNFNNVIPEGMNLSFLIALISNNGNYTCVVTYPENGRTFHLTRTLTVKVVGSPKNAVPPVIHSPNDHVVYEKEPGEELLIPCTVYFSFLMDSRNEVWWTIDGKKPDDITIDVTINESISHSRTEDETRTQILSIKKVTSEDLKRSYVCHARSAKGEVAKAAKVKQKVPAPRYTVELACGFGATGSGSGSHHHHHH

[2] = target: T2, cyno IL1RAP ECD displayed on HEK-293F cells (pDisplay) (cynomolgus monkey, UniProt P59822 21-367 (rhesus entry)); experiment: HEK-293F cells (MSD)
T2 sequence: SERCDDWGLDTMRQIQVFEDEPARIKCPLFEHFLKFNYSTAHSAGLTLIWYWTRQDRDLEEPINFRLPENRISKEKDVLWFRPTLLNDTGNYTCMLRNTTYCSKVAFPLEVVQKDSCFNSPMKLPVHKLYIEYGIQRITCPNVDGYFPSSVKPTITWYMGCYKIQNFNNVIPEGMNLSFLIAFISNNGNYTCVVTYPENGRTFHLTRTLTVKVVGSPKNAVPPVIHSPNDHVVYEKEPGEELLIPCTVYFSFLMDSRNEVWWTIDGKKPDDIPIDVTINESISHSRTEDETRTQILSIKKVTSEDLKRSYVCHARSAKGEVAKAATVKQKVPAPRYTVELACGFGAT

[3] = target: T3, recombinant cyno IL1RAP ECD (cynomolgus monkey, UniProt P59822 21-367 (rhesus entry)); experiment: recombinant protein
T3 construct: also called rcynoIL1RAP
T3 sequence: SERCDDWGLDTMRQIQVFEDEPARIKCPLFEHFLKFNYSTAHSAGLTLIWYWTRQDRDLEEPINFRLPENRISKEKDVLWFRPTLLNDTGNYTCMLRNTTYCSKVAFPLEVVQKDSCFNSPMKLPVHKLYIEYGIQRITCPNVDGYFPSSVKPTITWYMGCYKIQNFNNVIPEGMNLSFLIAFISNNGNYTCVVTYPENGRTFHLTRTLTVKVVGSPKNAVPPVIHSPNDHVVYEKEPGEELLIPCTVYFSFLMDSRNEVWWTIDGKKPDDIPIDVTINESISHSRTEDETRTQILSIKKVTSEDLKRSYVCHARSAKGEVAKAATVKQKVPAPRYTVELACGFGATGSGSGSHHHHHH

[4] = target: T1, recombinant human IL1RAP ECD; experiment: SPR, summary
[5] = target: T1, recombinant human IL1RAP ECD; experiment: SPR; KD against parent IAPB4
[6] = target: T1, recombinant human IL1RAP ECD; experiment: SPR (ProteOn); remark: listed apart in the source
[7] = target: T4, human IL1RAP ECD displayed on HEK-293F cells (pDisplay) (human, UniProt Q9NPH3 21-367); experiment: HEK-293F cells (MSD)
T4 construct: also called Human clone HE2 IL1RAP FL-ECD cell line
T4 sequence: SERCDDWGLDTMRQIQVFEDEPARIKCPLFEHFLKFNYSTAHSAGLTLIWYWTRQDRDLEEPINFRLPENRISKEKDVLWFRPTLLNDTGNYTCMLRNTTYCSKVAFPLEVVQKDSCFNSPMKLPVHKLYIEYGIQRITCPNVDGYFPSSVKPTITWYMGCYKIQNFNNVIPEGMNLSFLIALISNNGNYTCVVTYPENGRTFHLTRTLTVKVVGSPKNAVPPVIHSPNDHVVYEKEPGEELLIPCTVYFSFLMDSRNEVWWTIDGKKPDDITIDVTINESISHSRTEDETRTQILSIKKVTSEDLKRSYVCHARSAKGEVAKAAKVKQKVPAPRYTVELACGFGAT

[8] = target: T5, mouse IL1RAP ECD displayed on HEK-293F cells (pDisplay) (mouse, UniProt Q61730 21-367); experiment: HEK-293F cells (MSD)
T5 sequence: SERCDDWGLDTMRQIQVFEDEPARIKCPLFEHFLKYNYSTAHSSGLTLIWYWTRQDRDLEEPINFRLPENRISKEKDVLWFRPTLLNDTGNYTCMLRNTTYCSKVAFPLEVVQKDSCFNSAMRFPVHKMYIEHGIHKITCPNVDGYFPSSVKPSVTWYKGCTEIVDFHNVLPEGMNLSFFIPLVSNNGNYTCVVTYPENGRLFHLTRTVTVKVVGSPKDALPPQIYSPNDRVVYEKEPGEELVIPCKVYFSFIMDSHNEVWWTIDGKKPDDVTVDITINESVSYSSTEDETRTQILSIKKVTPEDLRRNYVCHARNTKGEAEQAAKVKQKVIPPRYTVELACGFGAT

[9] = target: T6, rat IL1RAP ECD displayed on HEK-293F cells (pDisplay) (rat, UniProt Q63621 21-367); experiment: HEK-293F cells (MSD)
T6 sequence: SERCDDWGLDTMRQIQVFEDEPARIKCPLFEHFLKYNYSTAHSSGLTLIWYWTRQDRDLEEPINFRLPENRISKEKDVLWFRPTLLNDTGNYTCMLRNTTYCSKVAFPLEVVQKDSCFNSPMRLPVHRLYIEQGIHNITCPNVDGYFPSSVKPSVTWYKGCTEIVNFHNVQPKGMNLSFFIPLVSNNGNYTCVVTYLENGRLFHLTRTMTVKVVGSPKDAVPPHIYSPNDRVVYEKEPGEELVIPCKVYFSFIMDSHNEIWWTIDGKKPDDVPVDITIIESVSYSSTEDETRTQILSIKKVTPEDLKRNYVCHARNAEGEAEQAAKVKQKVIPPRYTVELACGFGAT

B1: IAPB04 (antibody, human IgG4 S228P, kappa, F234A L235A, V domains shown)
VH: QVQLVQSGAEVKKPGSSVKVSCKASGGTFSSYAISWVRQAPGQGLEWMGGISAIFGTANYAQKFQGRVTITADESTSTAYMELSSLRSEDTAVYYCARHLHNGIHLDYWGQGTLVTVSS
VL: EIVLTQSPATLSLSPGERATLSCRASQSVSNFLAWYQQKPGQAPRLLIYGASNRATGIPARFSGSGSGTDFTLTISSLEPEDFAVYYCQQGKHWPWTFGQGTKVEIKR
notes: IgG4-PAA; also called IAPB4; phage hit B4
**Q.** What does the source list for B1?
**A.** Kd [1]: 5.66 nM; koff [1]: 0.00144 s⁻¹; kon [1]: 255000 M⁻¹ s⁻¹; binding result [2]: binds; binding result [3]: binds; Kd [4]: 5.66 nM; Fold Different from parent [5]: 1 fold; Kd [6]: 4.73 nM; koff [6]: 0.0014 s⁻¹; kon [6]: 295000 M⁻¹ s⁻¹

B2: IAPB38 (antibody, human IgG4 S228P, kappa, F234A L235A, V domains shown)
VH: EVQLLESGGGLVQPGGSLRLSCAASGFTFSNYAMNWVRQAPGKGLEWVSGINYGGGSKYYADSVKGRFTISRDNSKNTLYLQMNSLRAEDTAVYYCAKDYGPFALDYWGQGTLVTVSS
VL: EIVLTQSPATLSLSPGERATLSCRASQSVDDWLAWYQQKPGQAPRLLIYTASNRATGIPARFSGSGSGTDFTLTISSLEPEDFAVYYCQQYHHWPLTFGQGTKVEIKR
notes: IgG4-PAA; whole chains
**Q.** Does B2 bind [7]?
**A.** binds

**Q.** Does B2 bind [8]?
**A.** binds

**Q.** Does B2 bind [9]?
**A.** binds

**Q.** Does B2 bind [2]?
**A.** binds

**Q.** Does B2 bind [3]?
**A.** binds

B3: IAPB62 (antibody, human IgG4 S228P, kappa, F234A L235A, V domains shown)
VH: QVQLVQSGSELKKPGASVKVSCKASGYTFNTYAMNWVRQAPGQGLEWMGWINTNTGNPTYAQGFTGRFVFSLDTSVSTAYLQISSLKAEDTAVYYCARRYFDWLLGAFDIWGQGTMVTVSS
VL: DIQMTQSPSSVSASVGDRVTITCRASQGISSWLAWYQQKPGKAPKLLIYAASSLQSGVPSRFSGSGSGTDFTLTISSLQPEDFATYYCQQANSFPLTFGGGTKVEIKR
notes: IgG4-PAA; whole chains
**Q.** Does B3 bind [7]?
**A.** binds

**Q.** Does B3 bind [2]?
**A.** binds

**Q.** Does B3 bind [3]?
**A.** binds

— US20190270826A1 (Janssen / Centocor, published 2019)
